For data set [1], the system named is HeLa Kyoto. Put plainly: solubility in G1/S (NP-40 vs SDS abundance) (log2 ratio); higher = more soluble. The following applies: cell cycle stage: G1/S.
Data set [2] has as its system HeLa Kyoto. Put plainly: solubility change mitosis vs G1/S (difference of NP-40 vs SDS log2 ratios) (log2 ratio difference); higher = more soluble in mitosis.
For data set [3], the system named is HeLa Kyoto. The experiment in a line: thermal stability score vs G1/S (z-score of summed log2 fold changes over temperatures); higher = more thermally stable than in G1/S.
[4] abbreviates: cell cycle stage: early G1 (4.5 h after nocodazole release).
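Wherever solubility change mitosis vs G1/S (difference of NP-40 vs SDS log2 ratios) is given: synchronized HeLa Kyoto cells (double thymidine block for G1/S, nocodazole release for mitosis), protein amounts in NP-40 versus SDS lysates quantified by mass spectrometry, three biological replicates.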
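Wherever solubility in G1/S (NP-40 vs SDS abundance) is given: HeLa Kyoto cells arrested at G1/S by double thymidine block, proteins quantified by TMT10plex mass spectrometry in mild NP-40 versus SDS extracts, three biological replicates.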
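Wherever thermal stability score vs G1/S (z-score of summed log2 fold changes over temperatures) is given: synchronized HeLa Kyoto cells, proteins quantified by TMT10plex mass spectrometry, three biological replicates, mitosis taken 0.5 h after nocodazole release, G1/S directly after double thymidine block.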

For the sequence “MAAAAPAAAAASSEAPAASATAEPEAGDQDSREVRVLQSLRGKICEAKNLLPYLGPHKMRDCFCTINLDQEEVYRTQVVEKSLSPFFSEEFYFEIPRTFQYLSFYVYDKNVLQRDLRIGKVAIKKEDLCNHSGKETWFSLQPVDSNSEVQGKVHLELKLNELITENGTVCQQLVVHIKACHGLPLINGQSCDPYATVSLVGPSRNDQKKTKVKKKTSNPQFNEIFYFEVTRSSSYTRKSQFQVEEEDIEKLEIRIDLWNNGNLVQDVFLGEIKVPVNVLRTDSSHQAWYLLQPRDNGNKSSKTDDLGSLRLNICYTEDYVLPSEYYGPLKTLLLKSPDVQPISASAAYILSEICRDKNDAVLPLVRLLLHHDKLVPFATAVAELDLKDTQDANTIFRGNSLATRCLDEMMKIVGGHYLKVTLKPILDEICDSSKSCEIDPIKLKEGDNVENNKENLRYYVDKLFNTIVKSSMSCPTVMCDIFYSLRQMATQRFPNDPHVQYSAVSSFVFLRFFAVAVVSPHTFHLRPHHPDAQTIRTLTLISKTIQTLGSWGSLSKSKSSFKETFMCEFFKMFQEEGYIIAVKKFLDEISSTETKESSGTSEPVHLKEGEMYKRAQGRTRIGKKNFKKRWFCLTSRELTYHKQPGSKDAIYTIPVKNILAVEKLEESSFNKKNMFQVIHTEKPLYVQANNCVEANEWIDVLCRVSRCNQNRLSFYHPSVYLNGNWLCCQETGENTLGCKPCTAGVPADIQIDIDEDRETERIYSLFTLSLLKLQKMEEACGTIAVYQGPQKEPDDYSNFVIEDSVTTFKTIQQIKSIIEKLDEPHEKYRKKRSSSAKYGSKENPIVGKAS [RASA2]”, in data set [1], the “solubility in G1/S (log2)” value was -0.1. Besides, the “solubility change mitosis (log2)” value in data set [2] is -0.128. Moreover, the thermal stability score was determined as 0.349 in data set [3] (setting [4]) and 0.0928 in data set [3] (cell cycle stage: mitosis).

For “MAADVVGDVYVLVEHPFEYTGKDGRRVAIRPNERYRLLRRSTEHWWHVRREPGGRPFYLPAQYVRELPALGNPAAAAPPGPHPSPAAPEPLAYDYRFVSAAATAGPDGAPEESGGRASSLCGPAQRGAATQRSSLAPGLPACLYLRPAAPVRPAQSLNDLACAAVSPPAGLLGSSGSFKACSVAGSWVCPRPLARSDSENVYEVIQDLHVPPPEESAEQVDDPPEPVYANIERQPRATSPGAAAAPLPSPVWETHTDAGTGRPYYYNPDTGVTTWESPFEAAEGAASPATSPASVDSHVSLETEWGQYWDEESRRVFFYNPLTGETAWEDEAENEPEEELEMQPGLSPGSPGDPRPPTPETDYPESLTSYPEEDYSPVGSFGEPGPTSPLTTPPGWSCHVSQDKQMLYTNHFTQEQWVRLEDPHGKPYFYNPEDSSVRWELPQVPVPAPRSIHKSSQDGDTPAQASPPEEKVPAELDEVGSWEEVSPATAAVRTKTLDKAGVLHRTKTADKGKRLRKKHWSASWTVLEGGVLTFFKDSKTSAAGGLRQPSKFSTPEYTVELRGATLSWAPKDKSSRKNVLELRSRDGSEYLIQHDSEAIISTWHKAIAQGIQELSAELPPEESESSRVDFGSSERLGSWQEKEEDARPNAAAPALGPVGLESDLSKVRHKLRKFLQRRPTLQSLREKGYIKDQVFGCALAALCERERSRVPRFVQQCIRAVEARGLDIDGLYRISGNLATIQKLRYKVDHDERLDLDDGRWEDVHVITGALKLFFRELPEPLFPFSHFRQFIAAIKLQDQARRSRCVRDLVRSLPAPNHDTLRMLFQHLCRVIEHGEQNRMSVQSVAIVFGPTLLRPEVEETSMPMTMVFQNQVVELILQQCADIFPPH [ARHGAP27]”, the “solubility in G1/S (log2)” value in data set [1] stood at 0.0968. Further, in data set [2], the “solubility change mitosis (log2)” value was -0.164. For the same sequence, the thermal stability score came to 2.18 in data set [3] (setting [4]) and 0.927 in data set [3] (cell cycle stage: mitosis).

For the sequence “MAAPAPGAGAASGGAGCSGGGAGAGAGSGSGAAGAGGRLPSRVLELVFSYLELSELRSCALVCKHWYRCLHGDENSEVWRSLCARSLAEEALRTDILCNLPSYKAKIRAFQHAFSTNDCSRNVYIKKNGFTLHRNPIAQSTDGARTKIGFSEGRHAWEVWWEGPLGTVAVIGIATKRAPMQCQGYVALLGSDDQSWGWNLVDNNLLHNGEVNGSFPQCNNAPKYQIGERIRVILDMEDKTLAFERGYEFLGVAFRGLPKVCLYPAVSAVYGNTEVTLVYLGKPLDG [FBXO45]”, the “solubility in G1/S (log2)” value in data set [1] came out at 0.344. Also, the “solubility change mitosis (log2)” value in data set [2] was -0.17. Further, the thermal stability score was -0.0815 in data set [3] (setting [4]) and -0.292 in data set [3] (cell cycle stage: mitosis).

In the case of “MAAVVAATALKGRGARNARVLRGILAGATANKASHNRTRALQSHSSPEGKEEPEPLSPELEYIPRKRGKNPMKAVGLAWYSLYTRTWLGYLFYRQQLRRARNRYPKGHSKTQPRLFNGVKVLPIPVLSDNYSYLIIDTQAQLAVAVDPSDPRAVQASIEKEGVTLVAILCTHKHWDHSGGNRDLSRRHRDCRVYGSPQDGIPYLTHPLCHQDVVSVGRLQIRALATPGHTQGHLVYLLDGEPYKGPSCLFSGDLLFLSGCGRTFEGNAETMLSSLDTVLGLGDDTLLWPGHEYAEENLGFAGVVEPENLARERKMQWVQRQRLERKGTCPSTLGEERSYNPFLRTHCLALQEALGPGPGPTGDDDYSRAQLLEELRRLKDMHKSK [PNKD]”, the “solubility in G1/S (log2)” value in data set [1] is -0.0413. Besides, the “solubility change mitosis (log2)” value in data set [2] was -0.135. The thermal stability score in data set [3] (setting [4]) is 0.265; in data set [3] (cell cycle stage: mitosis), -0.394.

For “MAELDQLPDESSSAKALVSLKEGSLSNTWNEKYSSLQKTPVWKGRNTSSAVEMPFRNSKRSRLFSDEDDRQINTRSPKRNQRVAMVPQKFTATMSTPDKKASQKIGFRLRNLLKLPKAHKWCIYEWFYSNIDKPLFEGDNDFCVCLKESFPNLKTRKLTRVEWGKIRRLMGKPRRCSSAFFEEERSALKQKRQKIRLLQQRKVADVSQFKDLPDEIPLPLVIGTKVTARLRGVHDGLFTGQIDAVDTLNATYRVTFDRTGLGTHTIPDYEVLSNEPHETMPIAAFGQKQRPSRFFMTPPRLHYTPPLQSPIIDNDPLLGQSPWRSKISGSDTETLGGFPVEFLIQVTRLSKILMIKKEHIKKLREMNTEAEKLKSYSMPISIEFQRRYATIVLELEQLNKDLNKVLHKVQQYCYELAPDQGLQPADQPTDMRRRCEEEAQEIVRHANSSTGQPCVENENLTDLISRLTAILLQIKCLAEGGDLNSFEFKSLTDSLNDIKSTIDASNISCFQNNVEIHVAHIQSGLSQMGNLHAFAANNTNRD [LIN9]”, the “solubility in G1/S (log2)” value in data set [1] turned out to be 0.183. Moreover, the “solubility change mitosis (log2)” value in data set [2] is 0.143. Moreover, the figures for the thermal stability score in data set [3] (setting [4]) and in data set [3] (cell cycle stage: mitosis) were 2.27 and 3.4, respectively.

(Values after the supplement of paper PMC5998384.)
